Tests used:
[1] = target: the molecule itself; experiment: photon counting histogram
[2] = target: the molecule itself; experiment: single-molecule fluorescence brightness analysis

Row | Protein | stoichiometry N [1] | stoichiometry N [2]
1 | MyD88 TIR domain (159-296 a.a) fused to GFP at the N-terminus (domain or fragment, human, UniProt Q99836 159-296, looked up) ERFDAFICYCPSDIQFVQEMIRQLEQTNYRLKLCVSDRDVLPGTCVWSIASELIEKRCRRMVVVVSDDYLQSKECDFQTKFALSLSPGAHQKRLIPIKYKAMKKEFPSILRFITVCDYTNPCTKSWFWTRLAKALSLP | 3 | ~3 GFP fluorophores
2 | MyD88 death domain (1-117 a.a) fused to GFP at the N-terminus (domain or fragment, human, UniProt Q99836 1-117, looked up) MAAGGPGAGSAAPVSSTSSLPLAALNMRVRRRLSLFLNVRTQVAADWTALAEEMDFEYLEIRQLETQADPTGRLLDAWQGRPGASVGRLLELLTKLGRDDVLLELGPSIEEDCQKYI | 8 | 8 to 10 GFP molecules
